The results in this text go back to US20150352233A1.

For this assay, the target named is Membrane Preparation Recombinant Human GLP-1 (GLP-1R) (human) (UniProt P43220).

Regarding “non-labeled exendin4 (peptide; other documents disagree on this pair)”, the 50% inhibitory concentration (IC50) amounted to 0.19 nM.
